Source: patent US20050112108

Molecular target: GAAP-1 (Homo sapiens) (UniProt P15822)
Test: cell_activity
Settings: luciferase vs empty vector

Chain of GAAP-1 (Homo sapiens) (P15822 other isoform, or with tags, fused parts or gaps): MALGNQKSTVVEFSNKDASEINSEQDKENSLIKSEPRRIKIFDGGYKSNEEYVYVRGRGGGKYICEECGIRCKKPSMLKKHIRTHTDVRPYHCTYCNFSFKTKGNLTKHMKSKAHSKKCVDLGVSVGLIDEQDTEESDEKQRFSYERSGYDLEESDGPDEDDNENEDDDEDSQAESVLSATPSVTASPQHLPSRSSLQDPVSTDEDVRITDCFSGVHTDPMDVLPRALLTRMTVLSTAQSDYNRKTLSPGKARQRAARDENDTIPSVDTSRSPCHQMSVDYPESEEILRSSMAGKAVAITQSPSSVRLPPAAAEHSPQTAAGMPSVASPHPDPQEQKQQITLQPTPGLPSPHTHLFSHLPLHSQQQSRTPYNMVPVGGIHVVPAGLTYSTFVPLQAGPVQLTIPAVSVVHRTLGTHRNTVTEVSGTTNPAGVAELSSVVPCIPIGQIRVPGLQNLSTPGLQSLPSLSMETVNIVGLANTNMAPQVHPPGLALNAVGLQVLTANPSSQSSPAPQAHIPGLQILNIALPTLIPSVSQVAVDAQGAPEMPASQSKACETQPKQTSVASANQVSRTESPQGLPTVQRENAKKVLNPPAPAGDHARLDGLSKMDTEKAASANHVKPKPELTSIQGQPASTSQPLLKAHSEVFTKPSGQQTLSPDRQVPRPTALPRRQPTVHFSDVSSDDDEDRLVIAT

| Substance | activity | activity (K562 in text, U937 in figure legend) |
| --- | --- | --- |
| IPCS-SV40 chimeric promoter | 2.5 fold | – |
| IRF1 promoter luciferase | 2.5 fold | – |
| p53 promoter luciferase | – | 2.5 fold |
